Laboratory results as given in PMC6633398.

Tests used:
[1] = molecular target: golgin-84 (also known as GOLGA5) (UniProt Q8TBA6); experiment: co-immunoprecipitation (IP: c-Myc) from cytosol, western blot quantification; conditions: absence of detergent, n=4, parent: est. 1.0, read off a plot
[2] = molecular target: CASP (encoded by CUX1; isoform 4) (UniProt Q13948); experiment: as above; conditions: absence of detergent, n=4, parent: est. 1.0, read off a plot
Chain of CASP (encoded by CUX1; isoform 4) (Q13948 whole entry, canonical isoform): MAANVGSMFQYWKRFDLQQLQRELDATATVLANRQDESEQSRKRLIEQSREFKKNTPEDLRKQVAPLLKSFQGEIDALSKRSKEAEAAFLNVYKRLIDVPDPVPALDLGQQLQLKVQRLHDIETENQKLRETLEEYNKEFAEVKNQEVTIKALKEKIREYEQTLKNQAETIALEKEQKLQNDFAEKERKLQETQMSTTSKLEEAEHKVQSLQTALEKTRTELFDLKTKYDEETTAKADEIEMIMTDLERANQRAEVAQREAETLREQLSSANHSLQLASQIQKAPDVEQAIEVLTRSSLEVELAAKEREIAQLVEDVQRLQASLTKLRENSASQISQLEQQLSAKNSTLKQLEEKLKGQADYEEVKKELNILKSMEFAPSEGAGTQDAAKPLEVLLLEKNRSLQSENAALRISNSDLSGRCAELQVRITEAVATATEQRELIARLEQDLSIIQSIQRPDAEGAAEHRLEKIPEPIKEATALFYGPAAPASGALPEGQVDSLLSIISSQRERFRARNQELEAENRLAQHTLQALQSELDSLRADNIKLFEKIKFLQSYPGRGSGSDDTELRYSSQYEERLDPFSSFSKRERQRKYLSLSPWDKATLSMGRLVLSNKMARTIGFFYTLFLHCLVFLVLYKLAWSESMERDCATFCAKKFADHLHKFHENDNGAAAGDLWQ

Chain of golgin-84 (also known as GOLGA5) (Q8TBA6 whole entry, canonical isoform): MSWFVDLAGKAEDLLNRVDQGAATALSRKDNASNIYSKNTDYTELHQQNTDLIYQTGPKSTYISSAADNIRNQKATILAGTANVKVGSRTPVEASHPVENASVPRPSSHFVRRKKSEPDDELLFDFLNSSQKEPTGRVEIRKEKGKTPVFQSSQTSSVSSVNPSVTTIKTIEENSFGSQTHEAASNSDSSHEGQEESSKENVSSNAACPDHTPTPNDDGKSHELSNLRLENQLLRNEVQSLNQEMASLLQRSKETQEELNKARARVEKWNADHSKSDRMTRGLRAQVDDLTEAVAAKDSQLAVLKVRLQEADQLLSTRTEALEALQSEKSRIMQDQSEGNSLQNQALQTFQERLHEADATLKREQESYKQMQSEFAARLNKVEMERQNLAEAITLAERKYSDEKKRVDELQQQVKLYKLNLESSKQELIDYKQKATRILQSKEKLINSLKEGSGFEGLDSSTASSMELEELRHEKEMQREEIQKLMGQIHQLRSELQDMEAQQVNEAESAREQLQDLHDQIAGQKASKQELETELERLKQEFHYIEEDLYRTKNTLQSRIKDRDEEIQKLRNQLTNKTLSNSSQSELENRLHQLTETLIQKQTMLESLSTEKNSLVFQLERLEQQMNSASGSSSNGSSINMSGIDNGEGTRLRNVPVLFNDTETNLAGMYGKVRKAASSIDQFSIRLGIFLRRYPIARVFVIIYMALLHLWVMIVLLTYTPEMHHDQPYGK
Chain of c-Myc–TRC40 (wild-type TRC40, also known as ASNA1), O43681 D74E; L190K; I193K (O43681 whole entry D74E/L190K/I193K): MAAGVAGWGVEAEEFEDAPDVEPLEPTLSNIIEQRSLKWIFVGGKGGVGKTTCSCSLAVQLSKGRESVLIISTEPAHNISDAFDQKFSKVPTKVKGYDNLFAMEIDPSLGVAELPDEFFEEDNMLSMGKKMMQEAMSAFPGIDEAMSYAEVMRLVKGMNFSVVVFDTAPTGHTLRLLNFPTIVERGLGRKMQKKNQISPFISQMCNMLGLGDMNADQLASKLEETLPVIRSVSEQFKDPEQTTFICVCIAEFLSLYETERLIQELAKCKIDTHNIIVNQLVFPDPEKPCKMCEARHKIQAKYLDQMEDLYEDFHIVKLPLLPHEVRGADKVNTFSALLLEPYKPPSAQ
Chain of c-Myc–TRC40 (wild-type TRC40, also known as ASNA1), O43681 D74E (O43681 whole entry D74E): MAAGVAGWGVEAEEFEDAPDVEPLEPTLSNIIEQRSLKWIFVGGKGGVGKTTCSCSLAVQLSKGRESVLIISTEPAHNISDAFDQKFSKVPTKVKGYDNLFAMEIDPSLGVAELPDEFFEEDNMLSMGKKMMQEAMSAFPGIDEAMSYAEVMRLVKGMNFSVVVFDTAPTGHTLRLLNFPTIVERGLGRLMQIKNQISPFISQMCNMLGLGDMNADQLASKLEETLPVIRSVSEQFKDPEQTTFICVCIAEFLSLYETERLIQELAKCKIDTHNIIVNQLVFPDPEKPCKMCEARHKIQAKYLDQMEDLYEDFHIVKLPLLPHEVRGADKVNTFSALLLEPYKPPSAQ
Chain of c-Myc–TRC40 (wild-type TRC40, also known as ASNA1), O43681 D74E; L190D; I193D (O43681 whole entry D74E/L190D/I193D): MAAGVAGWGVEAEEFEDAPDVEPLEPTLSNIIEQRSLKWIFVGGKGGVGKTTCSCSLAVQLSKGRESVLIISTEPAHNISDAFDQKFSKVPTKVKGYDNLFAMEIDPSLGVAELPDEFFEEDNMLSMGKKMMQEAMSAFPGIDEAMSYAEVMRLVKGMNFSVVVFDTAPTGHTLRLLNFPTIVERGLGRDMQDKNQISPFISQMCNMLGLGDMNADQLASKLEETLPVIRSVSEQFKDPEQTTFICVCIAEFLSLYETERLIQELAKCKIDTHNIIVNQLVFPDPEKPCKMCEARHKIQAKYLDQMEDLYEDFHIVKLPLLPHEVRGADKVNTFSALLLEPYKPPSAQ

Substance	ratio to parent [1]	ratio to parent [2]
c-Myc–TRC40 (wild-type TRC40, also known as ASNA1), O43681 D74E	13	4.7
c-Myc–TRC40 (wild-type TRC40, also known as ASNA1), O43681 D74E; L190D; I193D	21	23
c-Myc–TRC40 (wild-type TRC40, also known as ASNA1), O43681 D74E; L190K; I193K	9	14
